Biological target: the molecule itself
Experiment: cross-linking

B1: Mtb LexA (LexA of Mycobacterium tuberculosis), wild type (natural protein)
chain: MNDSNDTSVAGGAAGADSRVLSADSALTERQRTILDVIRASVTSRGYPPSIREIGDAVGLTSTSSVAHQLRTLERKGYLRRDPNRPRAVNVRGADDAALPPVTEVAGSDALPEPTFVPVLGRIAAGGPILAEEAVEDVFPLPRELVGEGTLFLLKVIGDSMVEAAICDGDWVVVRQQNVADNGDIVAAMIDGEATVKTFKRAGGQVWLMPHNPAFDPIPGNDATVLGKVVTVIRKV
- stoichiometry N: 2
